T1: CADM2-Fc (human (by the printed RefSeq entry), UniProt Q8N3J6-1 25-367)
T1 construct: signal peptide in the construct; CADM2 extracellular domain, NP_001161146, 1-367 a.a; Human IgG2-Fc fragment from pFUSE-hIgG2-Fc1; source: FreeStyle 293-F cells, transiently transfected, purified from the supernatant (Protein G Sepharose); not shown: Fc (human IgG2), C-terminal, kept
T1 sequence (looked up): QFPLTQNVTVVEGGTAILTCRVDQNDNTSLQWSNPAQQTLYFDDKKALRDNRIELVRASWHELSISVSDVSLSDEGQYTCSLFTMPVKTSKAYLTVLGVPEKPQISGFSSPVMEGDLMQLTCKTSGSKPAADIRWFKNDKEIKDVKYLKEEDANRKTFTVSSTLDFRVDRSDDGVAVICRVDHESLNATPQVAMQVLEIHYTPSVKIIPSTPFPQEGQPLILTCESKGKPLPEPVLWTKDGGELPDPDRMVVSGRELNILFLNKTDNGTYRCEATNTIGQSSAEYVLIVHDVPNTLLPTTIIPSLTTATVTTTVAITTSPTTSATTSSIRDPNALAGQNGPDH

T2: CADM4-Fc (human (by the printed RefSeq entry))
T2 sequence (Q8NFZ8 whole entry, looked up): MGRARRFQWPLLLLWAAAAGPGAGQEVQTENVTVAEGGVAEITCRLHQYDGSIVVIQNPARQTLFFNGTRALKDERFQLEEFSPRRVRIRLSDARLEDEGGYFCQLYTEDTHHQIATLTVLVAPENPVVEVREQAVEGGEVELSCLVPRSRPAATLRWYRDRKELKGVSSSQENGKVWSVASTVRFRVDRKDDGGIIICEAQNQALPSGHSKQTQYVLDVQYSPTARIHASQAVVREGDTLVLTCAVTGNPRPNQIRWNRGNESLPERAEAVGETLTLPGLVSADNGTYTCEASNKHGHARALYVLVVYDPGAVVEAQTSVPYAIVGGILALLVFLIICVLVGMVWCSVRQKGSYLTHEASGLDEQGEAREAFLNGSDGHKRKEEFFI

B1: CADM1-Fc (Fc fusion, human (by the printed RefSeq entry), UniProt Q9BY67-1 45-374, looked up)
chain: QNLFTKDVTVIEGEVATISCQVNKSDDSVIQLLNPNRQTIYFRDFRPLKDSRFQLLNFSSSELKVSLTNVSISDEGRYFCQLYTDPPQESYTTITVLVPPRNLMIDIQKDTAVEGEEIEVNCTAMASKPATTIRWFKGNTELKGKSEVEEWSDMYTVTSQLMLKVHKEDDGVPVICQVEHPAVTGNLQTQRYLEVQYKPQVHIQMTYPLQGLTREGDALELTCEAIGKPQPVMVTWVRVDDEMPQHAVLSGPNLFINNLNKTDNGTYRCEASNIVGKAHSDYMLYVYDPPTTIPPPTTTTTTTTTTTTTILTIITDSRAGEEGSIRAVDH
notes: signal peptide in the construct; CADM1 extracellular domain, NP_055148, 1-374 a.a; Human IgG2-Fc fragment from pFUSE-hIgG2-Fc1; Glycosylated; also called cell adhesion molecule 1 extracellular domain fused with Fc; source: FreeStyle 293-F cells, transiently transfected, purified from the supernatant (Protein G Sepharose); not shown: Fc (human IgG2), C-terminal, kept
B2: CADM3-Fc (Fc fusion, human (by the printed RefSeq entry), UniProt Q8N126-1 25-330, looked up)
chain: NLSQDDSQPWTSDETVVAGGTVVLKCQVKDHEDSSLQWSNPAQQTLYFGEKRALRDNRIQLVTSTPHELSISISNVALADEGEYTCSIFTMPVRTAKSLVTVLGIPQKPIITGYKSSLREKDTATLNCQSSGSKPAARLTWRKGDQELHGEPTRIQEDPNGKTFTVSSSVTFQVTREDDGASIVCSVNHESLKGADRSTSQRIEVLYTPTAMIRPDPPHPREGQKLLLHCEGRGNPVPQQYLWEKEGSVPPLKMTQESALIFPFLNKSDSGTYGCTATSNMGSYKAYYTLNVNDPSPVPSSSSTYH
notes: signal peptide in the construct; CADM3 extracellular domain, NP_001120645, 1-330 a.a; Human IgG2-Fc fragment from pFUSE-hIgG2-Fc1; source: FreeStyle 293-F cells, transiently transfected, purified from the supernatant (Protein G Sepharose); not shown: Fc (human IgG2), C-terminal, kept

What was measured:
CADM2-Fc = molecular target: T1, CADM2-Fc; assay: SPR; SPR imaging (OpenPlex); the 10 IgSF-Fc proteins (7-24 μM) spotted in hexaplicate and immobilised by amine coupling; 2.4 μM CADM1-Fc injected for 4 min; 25°C; PBS with 0.2% BSA and 0.02% Tween20, 50 μL/min; signal of normal human IgG subtracted; conditions: both partners purified
[1] = molecular target: the molecule itself; assay: as above
[2] = molecular target: T2, CADM4-Fc (human (by the printed RefSeq entry)); assay: as above
CADM1-Fc = molecular target: B1; assay: as above; conditions: both partners purified
[3] = molecular target: the molecule itself; assay: SPR; SPR imaging (OpenPlex); the 10 IgSF-Fc proteins spotted and immobilised by amine coupling; CADM2-Fc, CADM3-Fc or CADM4-Fc injected as analyte; 25°C; PBS with 0.2% BSA and 0.02% Tween20, 50 μL/min

Binder	Kd (CADM2-Fc) [nM]	koff (CADM2-Fc) [s⁻¹]	kon (CADM2-Fc) [M⁻¹ s⁻¹]	Kd [1] [nM]	koff [1] [s⁻¹]	kon [1] [M⁻¹ s⁻¹]	Kd [2] [nM]	koff [2] [s⁻¹]	kon [2] [M⁻¹ s⁻¹]	Kd (CADM1-Fc) [nM]	koff (CADM1-Fc) [s⁻¹]	kon (CADM1-Fc) [M⁻¹ s⁻¹]	binding result [3]
B1	86.8	0.0064	74000	114	0.0073	64000	193	0.019	99000				
B2										80.1	0.007	84000	binds
